# Results as given in patent publication US20190300590A1 (PROTAGONIST THERAPEUTICS, published 2019).
# Where two headings read alike, the source gives them in different places. *1 amine or outer side, *2 acyl side, *3 side chain or, on linkers, in order; H or OH if unused. Bridges are numbered along the chain shown (N, C = ends). Primed or numbered codes have the meaning given here. [ ]: non-standard residue; d: D form. The star is where a group is joined. Phe(4-OMe)(3) = O-methyl-L-tyrosine (4-methoxy-L-phenylalanine), COc1ccc(C[C@H](N[*:1])C(=O)[*:2])cc1; Phe(4-OMe) = 4-methoxy-L-phenylalanine (O-methyl-L-tyrosine), COc1ccc(C[C@H](N[*:1])C(=O)[*:2])cc1; Phe(4-OMe)(4) = O-methyl-L-tyrosine, COc1ccc(C[C@H](N[*:1])C(=O)[*:2])cc1; Trp(6-Cl) = N[C@@H](Cc1c[nH]c2cc(Cl)ccc12)C(=O)O; Phe(4-CONH2) = NC(=O)c1ccc(C[C@H](N)C(=O)O)cc1; 2Nal = N[C@@H](Cc1ccc2ccccc2c1)C(=O)O; AEF = NCCOc1ccc(C[C@H](N)C(=O)O)cc1; αMeL = CC(C)C[C@](C)(N)C(=O)O; hLeu = CC(C)CC[C@H](N)C(=O)O; αMeK = C[C@](N)(CCCCN)C(=O)O; Isovaleryl = CC(C)CC(=O)*; Abu = CC[C@H](N)C(=O)O; Aib = CC(C)(N)C(=O)O
# T1: IL23R_huFC (human, UniProt Q5VWK5 24-353)
# T1 sequence (looked up): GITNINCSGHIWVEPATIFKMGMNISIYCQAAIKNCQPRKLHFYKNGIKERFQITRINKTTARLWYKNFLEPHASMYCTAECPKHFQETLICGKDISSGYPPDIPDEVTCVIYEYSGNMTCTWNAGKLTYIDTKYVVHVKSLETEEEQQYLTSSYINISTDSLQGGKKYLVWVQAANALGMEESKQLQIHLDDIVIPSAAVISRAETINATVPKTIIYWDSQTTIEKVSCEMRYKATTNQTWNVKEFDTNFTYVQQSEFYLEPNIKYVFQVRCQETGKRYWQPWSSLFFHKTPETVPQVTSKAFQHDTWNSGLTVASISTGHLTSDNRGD
# T2: IL-23R on human cells (IL-23R-expressing DB cells; human NK cells) (human, UniProt Q5VWK5 24-629)
# T2 sequence (looked up): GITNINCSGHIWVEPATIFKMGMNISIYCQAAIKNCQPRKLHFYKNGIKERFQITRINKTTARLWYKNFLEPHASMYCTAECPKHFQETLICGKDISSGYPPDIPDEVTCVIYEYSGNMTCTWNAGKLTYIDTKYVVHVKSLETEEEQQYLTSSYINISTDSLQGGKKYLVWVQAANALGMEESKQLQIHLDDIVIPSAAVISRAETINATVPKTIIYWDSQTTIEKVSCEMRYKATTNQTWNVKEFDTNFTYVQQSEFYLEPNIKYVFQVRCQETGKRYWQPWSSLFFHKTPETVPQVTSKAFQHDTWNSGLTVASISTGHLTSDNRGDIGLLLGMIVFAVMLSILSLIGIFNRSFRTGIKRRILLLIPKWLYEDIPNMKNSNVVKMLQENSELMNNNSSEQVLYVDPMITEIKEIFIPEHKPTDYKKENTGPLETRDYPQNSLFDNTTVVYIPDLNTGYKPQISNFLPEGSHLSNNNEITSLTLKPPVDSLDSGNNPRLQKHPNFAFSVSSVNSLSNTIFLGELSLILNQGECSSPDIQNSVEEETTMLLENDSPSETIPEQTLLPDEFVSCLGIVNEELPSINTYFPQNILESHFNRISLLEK
# T3: Rat IL-23R_huFC (rat, UniProt F1LX96 39-369)
# T3 sequence: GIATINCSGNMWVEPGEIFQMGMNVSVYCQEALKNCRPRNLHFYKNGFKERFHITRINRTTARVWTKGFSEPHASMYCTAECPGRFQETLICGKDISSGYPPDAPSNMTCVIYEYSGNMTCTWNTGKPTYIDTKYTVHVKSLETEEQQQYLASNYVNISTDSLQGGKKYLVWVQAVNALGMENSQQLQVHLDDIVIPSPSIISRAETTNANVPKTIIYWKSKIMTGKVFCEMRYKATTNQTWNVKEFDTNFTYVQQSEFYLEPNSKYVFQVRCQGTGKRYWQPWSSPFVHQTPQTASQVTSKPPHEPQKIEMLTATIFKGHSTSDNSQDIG
# How the values were obtained:
# [1] = target: Rat IL-23R_huFC (rat); test: rat ELISA vs IL-23
# [2] = target: T1, IL23R_huFC; test: human ELISA vs IL-23
# [3] = target: T2, IL-23R on human cells …; test: cell-based or functional assay
# [4] = target: T3, Rat IL-23R_huFC; test: rat IL-23R competitive binding ELISA
# [5] = target: Rat IL-23R_huFC (rat); test: rat ELISA vs IL-23; remark: listed apart in the source
# [6] = target: T1, IL23R_huFC; test: human ELISA vs IL-23; remark: listed apart in the source
IC50 [1] [nM],IC50 [2] [nM],pStat3 HTRF IC50 [3] [nM],Binder,further results
–,10 to 25,< 10,Ac-[Abu]QTWQC[AEF]W[Aib]ENN-NH2 (thioether 1-6) [Ac-Cyclo-[[Abu]-QTWQC]-[Phe[4-(2-aminoethoxy)]]-W-[Aib]-ENN-NH2],–
10 to 25,–,–,Ac-[Abu]QTWQC[Phe(4-CONH2)][2Nal][αMeK]K(Ac)NG-NH2 (thioether 1-6) [Ac-Cyclo-[[Abu]-QTWQC]-[Phe(4-CONH2)]-[2-Nal][α-MeLys]-[Lys(Ac)]-NG-NH2],–
–,10 to 25,< 10,Ac-[Abu]NTWQC[Phe(4-OMe)(4)][2Nal][αMeK]K(Ac)NG-NH2 (thioether 1-6) [Ac-Cyclo-[[Abu]-NTWQC]-[Phe(4-OMe)]-[2-Nal][α-MeLys]-[Lys(Ac)]-NG-NH2],IC50 [5]: 25 to 100 nM
–,10 to 25,< 10,Ac-[Abu]QTWQC[AEF][2Nal][αMeK]RNG-NH2 (thioether 1-6) [Ac-Cyclo-[[Abu]-QTWQC]-[Phe[4-(2-aminoethoxy)]]-[2-Nal]-[α-MeLys]-RNG-NH2],–
10 to 25,–,< 10,Ac-[Abu]QTWQC[AEF][2Nal][αMeK]DNG-NH2 (thioether 1-6) [Ac-Cyclo-[[Abu]-QTWQC]-[Phe[4-(2-aminoethoxy)]]-[2-Nal][α-MeLys]-DNG-NH2],IC50 [6]: < 10 nM
10 to 25,–,< 10,Ac-[Abu]QTWQC[Phe(4-OMe)(3)][2Nal][αMeK]K(Ac)NA-NH2 (thioether 1-6) [Ac-Cyclo-[[Abu]-QTWQC]-[Phe(4-OMe)]-[2-Nal][α-MeLys]-[Lys(Ac)]-NA-NH2],IC50 [6]: < 10 nM
–,10 to 25,< 10,Ac-[Abu]QTWQCYW[αMeL]ENG-NH2 (thioether 1-6) [Ac-Cyclo-[[Abu]-QTWQC]-YW-[α-MeLeu]-ENG-NH2],IC50 [5]: 25 to 100 nM
10 to 25,10 to 25,–,Ac-[Abu]QTWQC[Phe(4-OMe)]W[αMeK]K(Ac)NG-NH2 (thioether 1-6) [Ac-Cyclo-[[Abu]-QTWQC]-[Phe(4-OMe)]-W-[α-MeLys]-[Lys(Ac)]-NG-NH2],–
–,10 to 25,< 10,Ac-[Abu]QTWQC[AEF]W[hLeu]ENG-NH2 (thioether 1-6) [Ac-Cyclo-[[Abu]-QTWQC]-[Phe[4-(2-aminoethoxy)]]-W-[hLeu]-ENG-NH2],–
10 to 25,–,–,Ac-[Abu]QTWQC[AEF][2Nal][αMeK]K(Isovaleryl)NG-NH2 (thioether 1-6) [Ac-Cyclo-[[Abu]-QTWQC]-[Phe[4-(2-aminoethoxy)]]-[2-Nal]-[α-MeLys]-[Lys(isovaleric acid)]-NG-NH2],–

# Continued, binder first:
Binder,IC50 [1] [nM],IC50 [2] [nM],pStat3 HTRF IC50 [3] [nM],further results
Ac-[Abu]QTWQC[AEF]W[αMeK]ENG-NH2 (thioether 1-6) [Ac-Cyclo-[[Abu]-QTWQC]-[Phe[4-(2-aminoethoxy)]-W-[α-MeLys]-ENG-NH2],10 to 25,–,–,–
XQTWQXFXKKNG (N-terminal glutaric acid; Pen-Pen disulfide; Phe(4-OMe); 2-Nal; α-MeLys; Lys(Ac); NH2) [glutaric acid-[Pen]-QTWQ[Pen]-[Phe(4-OMe)]-[2-Nal]-[α-MeLys]-[Lys(Ac)]-NG-NH2],–,–,–,IC50 [4]: 25 to 100 nM
XQTWQXFXKKNG (N-terminal isovaleric acid; Pen-Pen disulfide; Phe(4-OMe); 2-Nal; α-MeLys; Lys(Ac); NH2) [isovaleric acid-[Pen]-QTWQ[Pen]-[Phe(4-OMe)]-[2-Nal]-[α-MeLys]-[Lys(Ac)]-NG-NH2],–,–,–,IC50 [4]: 25 to 100 nM
XQTWQXFWKKNG (Ac; Pen-Pen disulfide; Phe(4-OMe); α-MeLys; Lys(Ac); NH2) [Ac-[Pen]-QTWQ-[Pen]-[Phe-(4-OMe)]-W-[α-MeLys]-[Lys(Ac)]-NG-NH2],–,–,–,IC50 [4]: 25 to 100 nM
Ac-[Abu]QTWQCY[2Nal][αMeK]ENG-NH2 (thioether 1-6) [Ac-Cyclo-[[Abu]-QTWQC]-Y-[2-Nal]-[α-MeLys]-ENG-NH2],10 to 25,–,–,–
Ac-[Abu]QT[Trp(6-Cl)]QC[AEF][2Nal][αMeK]ENG-NH2 (thioether 1-6) [Ac-Cyclo-[[Abu]-QT-[6-chloroTrp]-QC]-[Phe[4-(2-aminoethoxy)]]-[2-Nal]-[α-MeLys]-ENG-NH2],10 to 25,10 to 25,< 10,–
Ac-[Abu]QTWQC[Phe(4-OMe)][2Nal][αMeK]ENG-NH2 (thioether 1-6) [Ac-Cyclo-[[Abu]-QTWQC]-[Phe(4-OMe)]-[2-Nal]-[α-MeLys]-ENG-NH2],–,10 to 25,< 10,IC50 [5]: 25 to 100 nM
XQTWQXFXKKNG (N-terminal succinic acid; Pen-Pen disulfide; Phe(4-OMe); 2-Nal; α-MeLys; Lys(Ac); NH2) [succinic acid-[Pen]-QTWQ[Pen]-[Phe(4-OMe)]-[2-Nal]-[α-MeLys]-[Lys(Ac)]-NG-NH2],–,–,–,IC50 [4]: 25 to 100 nM
Ac-[Abu]QTWQC[Phe(4-OMe)(3)][2Nal][αMeK]K(Ac)NAE-NH2 (thioether 1-6) [Ac-Cyclo-[[Abu]-QTWQC]-[Phe(4-OMe)]-[2-Nal][α-MeLys]-[Lys(Ac)]-NAE-NH2],10 to 25,–,< 10,IC50 [6]: < 10 nM
